Experimental data taken from US20220323599A1 (CELGENE, published 2022).
Read-outs that look alike come from different tables or passages of the source.

Legend:
[1] = molecular target: T1, human BCMA on cells (endogenous on multiple myeloma cell lines; stably transfected 293T-hBCMA) (human, UniProt Q02223 1-184); test: cell-based or functional assay
T1 sequence: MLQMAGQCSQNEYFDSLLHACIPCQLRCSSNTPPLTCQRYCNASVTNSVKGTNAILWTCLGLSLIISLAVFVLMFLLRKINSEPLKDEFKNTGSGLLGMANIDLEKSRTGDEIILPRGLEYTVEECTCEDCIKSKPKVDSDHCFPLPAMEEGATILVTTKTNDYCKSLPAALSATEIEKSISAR

[2] = molecular target: T2, cyno BCMA-Fc (custom protein production) (cynomolgus monkey, UniProt Q02223 1-54 (human entry)); test: SPR (Biacore), antibody captured on anti-Fab or anti-Fc surface, cyno BCMA-Fc as analyte, 25 C
T2 construct: also called cynomolgus BCMA-Fc; not shown: Fc part of the fusion protein, not described

[3] = molecular target: T1, human BCMA on cells (endogenous on …); test: FACS cell binding, NCI-H929 (BCMA+) cells
[4] = molecular target: T3, human BCMA-Fc (R&D Systems) (human, UniProt Q02223 1-54); test: SPR (Biacore), antibody captured on anti-Fab or anti-Fc surface, human BCMA-Fc as analyte, 25 C
T3 construct: Bought protein; not shown: Fc part of the bought fusion protein, not described
T3 sequence: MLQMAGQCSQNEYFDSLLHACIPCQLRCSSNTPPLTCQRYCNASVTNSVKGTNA

[5] = molecular target: T4, cynomolgus BCMA on stably transfected 293T cells (cynomolgus monkey, UniProt Q02223 1-184 (human entry)); test: FACS cell binding, 293T-cynoBCMA cells
[6] = molecular target: T5, human BAFF-R on stably transfected 293T cells (human, UniProt Q96RJ3 1-184); test: flow cytometry on 293T cells stably expressing human BAFF-R
T5 construct: whole, on cells; also called TNFRSF13C

[7] = molecular target: T1, human BCMA on cells (endogenous on …); test: flow cytometry, ARP-1 cells
[8] = molecular target: T1, human BCMA on cells (endogenous on …); test: cell-based or functional assay; remark: listed apart in the source
[9] = molecular target: T1, human BCMA on cells (endogenous on …); test: cell-based or functional assay; remark: listed apart in the source
[10] = molecular target: T4, cynomolgus BCMA on stably transfected …; test: flow cytometry, 293T-cBCMA cells
[11] = molecular target: T1, human BCMA on cells (endogenous on …); test: flow cytometry, U266B1 cells
[12] = molecular target: T1, human BCMA on cells (endogenous on …); test: cell-based or functional assay; remark: listed apart in the source
[13] = molecular target: T1, human BCMA on cells (endogenous on …); test: flow cytometry, NCI-H929 cells
[14] = molecular target: T1, human BCMA on cells (endogenous on …); test: flow cytometry, RPMI-8226 cells
[15] = molecular target: T1, human BCMA on cells (endogenous on …); test: flow cytometry, OPM-2 cells
[16] = molecular target: T6, human TACI on stably transfected 293T cells (human, UniProt O14836 1-293); test: flow cytometry on 293T cells stably expressing human TACI
T6 construct: whole, on cells; also called TNFRSF13B
T6 sequence (looked up): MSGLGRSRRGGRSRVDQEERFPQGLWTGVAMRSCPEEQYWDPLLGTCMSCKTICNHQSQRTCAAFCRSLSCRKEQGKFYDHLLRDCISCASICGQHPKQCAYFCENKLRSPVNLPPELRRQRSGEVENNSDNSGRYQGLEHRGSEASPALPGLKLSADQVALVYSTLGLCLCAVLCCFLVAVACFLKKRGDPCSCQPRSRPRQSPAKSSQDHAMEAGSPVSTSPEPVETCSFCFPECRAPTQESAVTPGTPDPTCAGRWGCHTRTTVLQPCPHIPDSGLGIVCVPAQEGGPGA

[17] = molecular target: T1, human BCMA on cells (endogenous on …); test: flow cytometry, MM.1S cells
[18] = molecular target: T7, mouse BCMA on transfected HEK293T cells (mouse, UniProt O88472 1-185); test: flow cytometry on 293T-mBCMA cells
T7 sequence: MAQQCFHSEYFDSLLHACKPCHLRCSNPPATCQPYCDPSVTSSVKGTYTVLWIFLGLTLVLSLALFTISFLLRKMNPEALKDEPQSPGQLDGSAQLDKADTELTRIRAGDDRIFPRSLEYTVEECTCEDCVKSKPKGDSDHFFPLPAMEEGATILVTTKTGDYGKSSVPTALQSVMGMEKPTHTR

[19] = molecular target: T1, human BCMA on cells (endogenous on …); test: cell-based or functional assay; remark: listed apart in the source
[20] = molecular target: T1, human BCMA on cells (endogenous on …); test: flow cytometry, 293T-hBCMA cells
[21] = molecular target: T1, human BCMA on cells (endogenous on …); test: flow cytometry, NCI-H929 cells; NCI-H929 cells

T4 sequence (Q02223 other isoform, or with tags, fused parts or gaps): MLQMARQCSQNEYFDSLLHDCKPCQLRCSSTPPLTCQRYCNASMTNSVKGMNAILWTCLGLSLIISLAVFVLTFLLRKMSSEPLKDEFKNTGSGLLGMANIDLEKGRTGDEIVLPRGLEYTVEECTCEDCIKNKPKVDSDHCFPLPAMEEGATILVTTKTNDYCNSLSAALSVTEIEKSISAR

B1: 2265-F02 (Fab-HC Variant ID; Antibody 4), cell-free expressed His- and FLAG-tagged IgG1 used in screening (antibody, V domains shown)
VH: EVQLVESGGGLVQPGGSLRLSCAASGFNISAPGIHWVRQAPGKGLEWVGFINPAGGYTDYADSVKGRFTISADTSKNTAYLQMNSLRAEDTAVYYCARDYIRQYWTYVLDYWGQGTLVTVSS
VL: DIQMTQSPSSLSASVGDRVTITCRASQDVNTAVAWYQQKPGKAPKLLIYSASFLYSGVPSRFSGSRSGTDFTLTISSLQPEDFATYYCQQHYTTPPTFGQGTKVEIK
What does the source list for B1?
ARP-1, Conjugate M 2° antibody cell killing, EC50 [1]: 1.9 nM; U266B1, Conjugate M 2° antibody cell killing, EC50 [1]: 0.9 nM; Kd [2]: 3.68 nM; koff [2]: 0.00116 s⁻¹; kon [2]: 315000 M⁻¹ s⁻¹; Kd [3]: 5.2 nM; Kd [4]: 0.499 nM; koff [4]: 0.000293 s⁻¹; kon [4]: 587000 M⁻¹ s⁻¹; Kd [5]: 6.2 nM

B2: Conjugate 4: Antibody 2265-F02 conjugated to a non-cleavable maytansine warhead (Conjugate M) at Y180/F404 site (DAR4) (antibody, human IgG1, kappa, V domains shown)
VH: EVQLVESGGGLVQPGGSLRLSCAASGFNISAPGIHWVRQAPGKGLEWVGFINPAGGYTDYADSVKGRFTISADTSKNTAYLQMNSLRAEDTAVYYCARDYIRQYWTYVLDYWGQGTLVTVSS
VL: not shown
modifications: p-azidomethyl-phenylalanine (pAMF) at HC-Y180 and HC-F404 by EU numbering (actual positions 186 and 410 as printed), each linked to the non-cleavable maytansinoid drug-linker (Conjugate M); DAR 4
notes: also called Conjugate 4 ADC; BCMA ADC Conjugate 4
Does B2 bind [6]?
Result: no binding (tested: 67 nM)

What about the Kd [7] of the same binder?
Its Kd is 1.2 nM.

What about the “cell killing EC50, NCI-H929, Experiment 1” value [8] of the same binder?
Its value is 0.7 nM.

What about the “cell killing EC50, NCI-H929, Experiment 2” value [8] of the same binder?
Its value is 0.8 nM.

What about the “cell killing EC50, OPM2, Experiment 1” value [8] of the same binder?
Its value is 1.7 nM.

And the “cell killing EC50, OPM2, Experiment 2” value [8]?
The value was 2 nM.

What about the “cell killing EC50, U266B1, Experiment 1” value [8] of the same binder?
Its value is 0.7 nM.

What about the “cell killing EC50, U266B1, Experiment 2” value [8] of the same binder?
The value was 0.8 nM.

And the “cell killing EC50, ARP-1, no competing reagent” value [9]?
The value was 0.7 nM.

What about the “cell killing EC50, NCI-H929, no competing reagent” value [9] of the same binder?
The value was 0.9 nM.

And the “cell killing EC50, OPM2, no competing reagent” value [9]?
The value was 3.3 nM.

What about the “cell killing EC50, U266B1, no competing reagent” value [9] of the same binder?
The value was 0.9 nM.

And the Kd [10]?
The Kd was 2.7 nM.

And the Kd [11]?
Its Kd is 3.9 nM.

What about the “cell killing EC50, ARP-1” value [12] of the same binder?
The value was 0.7 nM.

And the “cell killing EC50, MM.1S” value [12]?
The value was 0.82 nM.

And the “cell killing EC50, NCI-H929” value [12]?
The value was 0.8 nM.

And the “cell killing EC50, OPM-2” value [12]?
Its value is 2.1 nM.

And the “cell killing EC50, U266B1” value [12]?
Its value is 0.86 nM.

What about the Kd [13] of the same binder?
The Kd was 2.4 nM.

And the Kd [14]?
Its Kd is 1.8 nM.

And the Kd [15]?
The Kd was 2.3 nM.

Does B2 bind [16]?
Result: no binding (tested: 67 nM)

And the Kd [17]?
Its Kd is 1.6 nM.

Does B2 bind [18]?
Result: no binding (tested: titrated from 200 nM)

And the “cell killing EC50, NCI-H929, Experiment 1” value [19]?
The value was 0.8 nM.

And the “cell killing EC50, NCI-H929, Experiment 2” value [19]?
The value was 0.8 nM.

And the “cell killing EC50, OPM2, Experiment 1” value [19]?
The value was 1.7 nM.

And the “cell killing EC50, OPM2, Experiment 2” value [19]?
The value was 1.8 nM.

What about the “cell killing EC50, U266B1, Experiment 1” value [19] of the same binder?
The value was 0.8 nM.

And the “cell killing EC50, U266B1, Experiment 2” value [19]?
The value was 0.9 nM.

B3: 2265-F02 Y180/F404 (unconjugated Ab), unconjugated antibody version of Conjugate 4 (antibody, human IgG1, kappa, V domains shown)
VH: EVQLVESGGGLVQPGGSLRLSCAASGFNISAPGIHWVRQAPGKGLEWVGFINPAGGYTDYADSVKGRFTISADTSKNTAYLQMNSLRAEDTAVYYCARDYIRQYWTYVLDYWGQGTLVTVSS
VL: not shown
modifications: p-azidomethyl-phenylalanine (pAMF) replacing HC-Y180 and HC-F404 by EU numbering (actual positions 186 and 410 as printed)
notes: Aglycosylated humanized IgG1
With B3 as the binder, how does the Kd [20] read?
The Kd was 2.1 nM.

And the Kd [7]?
The Kd was 1 nM.

What about the Kd [10] of the same binder?
Its Kd is 2.8 nM.

And the Kd [21]?
The Kd was 0.9 nM.

What about the Kd [14] of the same binder?
The Kd was 1.3 nM.

What about the Kd [15] of the same binder?
Its Kd is 1.3 nM.

What about the Kd [17] of the same binder?
The Kd was 0.9 nM.

Does B3 bind [18]?
Result: no binding (tested: titrated from 200 nM)
